assay: soluble fraction after stress (log2 fold change); higher = more stays soluble; pooled small domains, quantitative proteomics; settings: stress: pH 4
Method in brief: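 Aggregation propensity is estimated from the fold change in each domain's soluble amount after acid stress. Pooled small-domain libraries were stressed at pH 4, and higher log2 values mean more stayed soluble.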

Row | Sequence | soluble fraction (log2)
1 | HMGSKEQELVILNNILERQLQAINLQKSAAGPMVNLRNVHNTLTKLVEAAGLKNVETYFTDPVIGAAQ | -0.543
2 | HMGSNTLEDAYKVLGITPDATDDEVRKAYKKMVIQHHPDKVANLGEDVKKAATIKLQEINNAKEIIFKARN | 0.192
3 | HMGSQSYVAIVNERFKESDIVELGGSVGSRTGDIITLHFRNSSPNELKNITGIVYLQVANKVTPKL | -0.875
4 | HMGSTDTLEDALEAAEKISYPVIIKATAGGGGRGMKVASSLEELKKVYHTTKLEAKNAFGNDQVYIEKYL | -0.0649
5 | HMGSTYGISRVDNETSRTHGWLVTIQRRGVIYRKHFSDGVFGGKQRSFAAAKEYRDEVIAAHP | -0.00453
6 | HMGSVVATLRKLIIDGHYPAGTRLAEIPVANALGVSRTPVRLAFRTLQQEGLLQTVGKRGIVVRAF | 0.137
7 | HMGSWDDFFNAIRLDNPNTLQALLQRGFDPNTVDQQGTPALMRALQEQSYRAAEVLADHPQI | -0.584
8 | HMGTAGLSPWHKIAVLMIALGPEGASELMRHFGEDEVEQVVQAIADLKNVPSELQDAVLLEMEGALQEG | -0.796
9 | HMGTDVFIMTGGTRKRGATWSYYFDLGKIDGKRQKKEKGGFKTKKEAETALAKAINEYNNAGA | 0.175
10 | HMGTFIATVEANSLDIYKSMSSNETIGKANKGEVFQILEDMGSGYARVSYNDVEGYLSIRDGDATIEE | -1.54
11 | HMGTGADQVSWKTGDKVTHKKWGEGTVVKVSGSGNDKELDIAFPQQGVKRLLASFAPIKKVT | -0.0102
12 | HMGTGQTNEKLAVLTNIQKTQEQILLTLGAKNPLVNLKQYRETLAKILSLSGYKNSNEFFLDPM | -0.25
13 | HMGTGTYQVWSANGLGVRMRSGPGTGYRILAVYSVGTSVTVLQKGAYWSYIRVGSRTGYMMNQFLVSG | -0.268
14 | HMGTGVEQGKQYRTLKRDFDGASGIKVNGDFYRLRTSDTGMTELPAGTEVTFERFDGTTAVVHT | 0.196
15 | HMGTHPGIDSGIISDILALKKELPTRSAAKIITMLTLAGKMEENSIHVKTVNRILYQYGYTRDTLS | -0.222
16 | HMGTITKRTNPSGAVVWRAQIRINKADMPTYSESKTFSKKSLATEWLKRREAEIEANPDLIL | ≥ 0.43
17 | HMGTKDVNAAPSAVGRTYDEAIEILNGYKAGYLEEYSDTVPKGTVISQSVQDGQVVIVVSLGPKPS | -0.18
18 | HMGTKVGAPLPGTITEVKVKVGDTVKAGDAVIILEAMKMQNNIEAEVSGTVSSVLVKEGDTVMEGDALITI | -1.18
19 | HMGTLNLSQAYREWGMAEIEANRDYYGPVRFDDIAFQMSPAGQQLQARFVASYADRLHDAIEGEL | -1.68

Row | Sequence | soluble fraction (log2)
20 | HMGTLRPKGTVVFANLPIAADAKEGDMYNISDQFTTTASFKEGAGNVIPAGSNVYRTDDGFWDVL | 0.193
21 | HMGTPEQSAQFEQVLEELKNVPGPVMKAMQRAQDIYGYLPIEIQSRIGQAFGVSLEEVYGIATFYSQFNL | -2.6
22 | HMGTQKVQVVNGPINVRSGPGPTFEKIGMVEDQAVYQVVSKKDDWFQISLPGNKTAWVAGWLVKEIK | -0.0241
23 | HMGTRHPLPYAFAKAHTVLLEDDGDRLLLHAAENSGPSALGEILRLYDVDALERETASTLANRIAVAYAG | 0.163
24 | HMGTSGLTIPRFVSLASGTVHMRAGPGVRYPITWIYKRLGTPLMVMAEHEFWRKVRDAEGTEGWMHRSLLS | -0.00785
25 | HMGTSIMIIIVKPETKKERVNDLIHWIESQNLRTHLSTGDYSTIIGVIGDTSKLDSELIRGLDIVENVKRV | -1.24
26 | HMGTSMDPPVIIVSDGKLIQKGLEVSGLKKQWLYDLIDRKHMKISDIFLLTADKTGKYNLIKRS | -0.134
27 | HMGTSQSAVKAILAQLISDENKQKPYSDEALSRLLQQQGIDIARRTVAKYREALNIPPAHQRK | 0.365
28 | HMGTSRVQSILFDQSQWTINRAVHWLNTHHFISTKIDKTDKYLRFRQFDPNPDSHHATKRTSQGITFILE | ≥ 0.43
29 | HMGTTIAMSKLKQVLRWKEEGYSNRKIAQLVGLNKETVNNYISRANADSLSQKELLQLDDFVLDIRLRG | -0.138
30 | HMGTTTGKVNATGVNFRTGPSTSYSSMGKLGIDTAVTILGKSGDWYQVKVNSTGKTGYVFAKYITITSVV | -0.434
31 | HMGTVIGMGRITAGGVNFRETEGGGVIEKLERDTLVEVLTVPSVIDTTHWYQVRYNNRTGYVQAPFVQLLG | 0.176
32 | HMGTVKWFNATKGFGFIVPSDGGKDVFVHITAVQKAGLQGLNEGQKVSYEVAMERGKAAATNLR | -0.259
33 | HMGTVRFYNKERGFGFVVSDDGESVFLPAKALPDGVSDLSPGTRVDYGAALGKKGSQ | -0.203
34 | HMGVAAPMPGTITDVRVKVGDRVQPRTVVMMLEAMKMENEIFAGRAGVVSQVAVEKGASVNTGDLLISIDP | 0.325
35 | HMGVAASEVHREKKESSLQWRQSYNVATDQRRQGKTYKEITEFLNGAELKNSKGGTWSISGVRKMLM | ≥ 0.43
36 | HMGVARGQAQVTTRQHVVQPGETLYQISKQYGVTVAEILRYNADIEDNTVKVGQTLQIPTPLP | -0.206
37 | HMGVDMAPESIVGKKGVAATELRPAGKVEIHGQVYDAVSVGMFIKRGTGVKVVRYEAAQIYVEPE | -0.112
38 | HMGVEALTPRQREVLALMAQGRSNGWIAAELGLSEKAIVQHTSNIYDMLGLAVDADDHRRVLAVIHYLT | -0.943

Row | Sequence | soluble fraction (log2)
39 | HMGVENDGYVLPRELKKGDTVLIADLGKEATVLSPVDRNGNVEVLAGAAKTRVKLKNLRLIE | 0.179
40 | HMGVEVPRGDGSTVVRVRAGSSLADFAERIGADPAALITVLFRMGEMATVNQSLDEDTFKLLGAELGYDVQ | -0.721
41 | HMGVGIAEAMKHVADEDYGDLSSEFQRIFSAVDGGSTLGDAVRAQMRATSSAGLRRTLSVLAMSVE | -0.314
42 | HMGVGTTDERLAVLNQIASRQTEALEKLGPNNPLVGLGQIRNTLSKMLEISGYPDSNQFFKQVPLDYEPPP | -0.0341
43 | HMGVIDTLSGPQKAAAILVAIGRPSASRLLKHFNAEDLRKLAGHARTLEPISPLDFEHLVKQFEDSFAEG | -0.745
44 | HMGVIGADIRALRVSRGWTLSDLAEALDRSVGWLSQVERDVSEPALADIRRIAGIFDLPVSFFFSD | -1.64
45 | HMGVLDFSAQLLKHLEMNGGQTPLGDKSPAEEIYAVFGVSKKVFKKAVGDLYRKRLIEISSNGIRMTS | 0.336
46 | HMGVLGVDALAAAAEVSVDTVRYYQHLGLLEPPRREGRRAVYGPSHLARMGEIRRLAAAGFTLDQIRQLAE | -1.62
47 | HMGVPTEQQSLIGKSGIAATDLRPSGKVEIDGKRYDAVSNYAGFIAKGTPISVVRYETGQIYVE | 0.0721
48 | HMGYDDVIVINGKNETYGFPTKVEDDPVLSLVIKGDRSIDYAEERRLFYVAMTRTKNRVFFVAP | -0.803
49 | HMGYGEQEAEATKYMSLHAIMSADETLSKMYTPENQHKLMTHVMEQNGIKNVKDYLTPPSELP | -0.443
50 | HMGYPYDTVTTAKVNLRAKRSTSSDILKKIPEGATVTVKGVTGTFASVDYNGTSGYVKVDYLV | -0.196
51 | HMGYSSKISELLTKYNMNASELAQKVGVPPTTIYSIIKRDSKKADIEVLIKIAKLFNVPVEYF | 0.186
52 | HMGYTPGVVIQKSAILEEINQPDLALGMMLEAVKKDSQNLDILNRLVTLLIDQKKNEDAEIYNKKIIT | 0.187
53 | HMHAGMKSWTIQYEKSPIYGSFLMYKDGNIYIQKEDNVVVHFPLDRFSQNDQAILKSRIEKIDQINKSS | -0.0137
54 | HMHAPKIIVLTINPDKIRDVIGPGGKMIKSIVAATGVKMDVEDDGKIHISSSDQKAADEAIRMINEITAEA | 0.223
55 | HMHAPLEVGSVVRIEGQKALGTILSISDREAIVALGALKTTIPLKRLHGVSPAEAQRHLRKTTPAQAVR | 0.0546
56 | HMHAQDTLMTRAGETRTVKILEIGLEEIKYRIWGLDDSPVIVIDKIDVKQIVFSNGEKMTIVQ | -1.86

Reference: the domain aggregation screens of Martell et al. (2025)
